Data on 5 molecules can be found in patent US20200095324A1 (POTENZA THERAPEUTICS, published 2020).

Assay [1] addresses T1, human TIGIT (human, UniProt Q495A1 22-141).
T1 construct: Expressed in HEK-293 cells and secreted as soluble protein; also called hTIGIT; monomeric wild type human TIGIT; not shown: His tag (purified on Ni-NTA, called 'human TIGIT HIS')
T1 sequence: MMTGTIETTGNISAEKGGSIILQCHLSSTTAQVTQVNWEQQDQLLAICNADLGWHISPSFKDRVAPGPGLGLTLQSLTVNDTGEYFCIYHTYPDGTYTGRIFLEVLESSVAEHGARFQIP
As to the kind of experiment: BLI (Octet), antibody captured on anti-human Fc sensors. On the procedure:
(§1) To identify the epitope for MAB10 binding to human TIGIT, 18 alanine single point mutations were made. Proteins were expressed in HEK-293 cells, secreted as soluble protein, purified on Ni-NTA resin, and characterized by SDS-PAGE. Binding was assessed by Bio-Layer Interferometry (BLI) using the Octet platform. MAB10 was captured on anti-human Fc sensors, washed, and exposed to either monomeric wild type human TIGIT or to one of a selection of point mutants.
To identify the epitope for MAB2, MAB15, and MAB21 binding to human TIGIT, binding to 7 alanine single point mutations was assessed using BLI as described in the preceding paragraph.

In assay [2] the target is T1, human TIGIT. In words: BLI (Octet), MAB10 captured on anti-human Fc sensors, monomeric wild type human TIGIT in solution. The protocol:
as §1

Assay [3] has as its target T1, human TIGIT. In words: complex formation, size exclusion chromatography and crystallisation. The protocol: The binding epitope of MAB10 was also identified through crystallographic studies. MAB10 Fab was complexed with human TIGIT, purified by size exclusion chromatography, and concentrated to 10 mg/ml. Crystals were grown out of 14% PEG4000, 0.1M MES pH 6, 10 mM β-nicotinamide adenine dinucleotide hydrate, 0.5% n-dodecyl-β-D-maltoside. X-ray data were collected at Argonne National Laboratories (GM/CA CAT 23ID-D) and processed using CCP4 (Collaborative Computational Project No. 4, Software for Macromolecular X-Ray Crystallography) and Phenix (Python-based Hierarchical ENvironment for Integrated Xtallography). TIGIT residues within a contact distance of 3.8 Å from the heavy and light chain were considered part of the binding epitope and include T55, Q56, L65, D72, L73, H76, I77, S78, P79 and H111.
Background: Size exclusion chromatography separates by hydrodynamic size, large species first.

B1: MAB2 (antibody, human IgG4 S228P, kappa, V domains shown)
VH: QLQLQESGPGLVKPSETLSLTCTVSGGSISSSKYYWGWIRQPPGKGLEWIGSIYYSGSTFYNPSLKSRVTISVDTSKNQFSLKLSSVTAADTAVYYCARDANYYGSAWAFDPWGQGTLVTVSS
VL: EIVLTQSPATLSLSPGERATLSCRASQSVSSYLAWYQQKPGQAPRLLIYDASNRATGIPARFSGSGSGTDFTLTISSLEPEDFAVYYCQQHFNLPTFGGGTKVEIKR
notes: also called MAB2-IgG4
As for B1, the binding result in assay [1] is listed as “binds”.

B2: MAB15 (antibody, human IgG4 S228P, kappa, V domains shown)
VH: QVQLVQSGAEVKKPGASVKVSCKASGYTFREYYMHWVRQAPGQGLEWMGIINPSIGLTSYARKFQGRVTMTRDTSTSTVYMELSSLRSEDTAVYYCARGGRTTWIGAFDIWGQGTMVTVSS
VL: EIVMTQSPATLSVSPGERATLSCRASQSVSSNLAWYQQKPGQAPRLLIYGASTRATGIPARFSGSGSGTEFTLTISSLQSEDFAVYYCQQYVVWPPLTFGGGTKVEIKR
notes: also called MAB15-IgG4
For the molecule B2, in assay [1], the binding result is “binds”.

B3: MAB21 (antibody, human IgG4 S228P, kappa, V domains shown)
VH: QVQLVQSGAEVKKPGASVKVSCKASGYTFTSHYMGWVRQAPGQGLEWMGIINPSMGATSYTQKFRGRVTMTRDTSTSTVYMELSSLRSEDTAVYYCARLHVSGSYYPAYLDYWGQGTMVTVSS
VL: EIVMTQSPATLSVSPGERATLSCRASQSVSSNLAWYQQKPGQAPRHLIYGASTRATGIPARFSGSGSGTEFTLTISSLQSEDFAVYYCQQYIVFPWTFGGGTKVEIKR
notes: also called MAB21-IgG4
On to B3, for which the binding result in assay [1] is listed as “binds”.

B4: MAB10 (antibody, human IgG4 S228P, kappa, V domains shown)
VH: QVQLQESGPGLVKPSQTLSLTCTVSGGSIESGLYYWGWIRQPPGKGLEWIGSIYYSGSTYYNPSLKSRATISVDTSKNQFSLKLSSVTAADTAVYYCARDGVLALNKRSFDIWGQGTMVTVSS
VL: EIVLTQSPGTLSLSPGERATLSCRASQSVSSSYLAWYQQKPGQAPRLLIYGASSRATGIPDRFSGSGSGTDFTLTISRLEPEDFAVYYCQQHTVRPPLTFGGGTKVEIKR
notes: also called MAB10-IgG4; anti-TIGIT antibody MAB10
Consider B4, for which the binding result in assay [2] is “binds”.

B5: MAB10 Fab (Fab, V domains shown)
VH: QVQLQESGPGLVKPSQTLSLTCTVSGGSIESGLYYWGWIRQPPGKGLEWIGSIYYSGSTYYNPSLKSRATISVDTSKNQFSLKLSSVTAADTAVYYCARDGVLALNKRSFDIWGQGTMVTVSS
VL: EIVLTQSPGTLSLSPGERATLSCRASQSVSSSYLAWYQQKPGQAPRLLIYGASSRATGIPDRFSGSGSGTDFTLTISRLEPEDFAVYYCQQHTVRPPLTFGGGTKVEIK
notes: Fab of MAB10 used for crystallography
For the molecule B5, the binding result in assay [3] was “binds”.
